T1: mouse ASIC1a (mouse, UniProt Q6NXK8 1-526)
T1 construct: whole, on cells; Expressed on stably transfected 3T3 cells (3T3/mASIC1a); also called mASIC1a
T1 sequence (looked up): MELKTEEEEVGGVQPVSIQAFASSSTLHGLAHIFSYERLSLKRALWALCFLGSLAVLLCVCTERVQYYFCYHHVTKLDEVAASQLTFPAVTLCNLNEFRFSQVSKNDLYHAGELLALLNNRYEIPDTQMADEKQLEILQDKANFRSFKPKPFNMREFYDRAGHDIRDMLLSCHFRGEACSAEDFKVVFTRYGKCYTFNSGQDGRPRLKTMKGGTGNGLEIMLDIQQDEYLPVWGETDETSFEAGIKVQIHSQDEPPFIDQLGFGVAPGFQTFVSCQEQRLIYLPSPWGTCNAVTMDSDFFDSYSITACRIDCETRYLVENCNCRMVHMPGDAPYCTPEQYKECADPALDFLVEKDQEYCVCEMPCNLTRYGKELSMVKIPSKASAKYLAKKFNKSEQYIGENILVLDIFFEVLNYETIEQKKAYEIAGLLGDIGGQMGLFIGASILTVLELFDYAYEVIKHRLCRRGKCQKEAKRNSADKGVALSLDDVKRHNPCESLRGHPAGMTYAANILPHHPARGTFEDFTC

T2: human ASIC1 (human, UniProt P78348 1-528)
T2 sequence: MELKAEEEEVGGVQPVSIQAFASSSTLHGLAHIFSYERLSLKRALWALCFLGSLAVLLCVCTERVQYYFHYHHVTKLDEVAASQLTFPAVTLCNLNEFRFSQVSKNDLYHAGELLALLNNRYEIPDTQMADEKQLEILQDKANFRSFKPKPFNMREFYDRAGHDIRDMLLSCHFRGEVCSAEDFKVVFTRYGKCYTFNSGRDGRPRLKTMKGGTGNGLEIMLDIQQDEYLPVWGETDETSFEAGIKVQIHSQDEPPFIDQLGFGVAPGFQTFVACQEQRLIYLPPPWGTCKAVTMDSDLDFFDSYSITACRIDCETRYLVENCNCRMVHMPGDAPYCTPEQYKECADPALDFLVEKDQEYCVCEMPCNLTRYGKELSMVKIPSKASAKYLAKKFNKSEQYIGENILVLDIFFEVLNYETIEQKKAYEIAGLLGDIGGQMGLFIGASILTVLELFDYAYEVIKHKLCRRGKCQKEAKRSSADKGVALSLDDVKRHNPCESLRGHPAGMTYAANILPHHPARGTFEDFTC

T3: human ASIC1/ASIC3 channels (co-expressed human ASIC1a and human ASIC3) (human, UniProt Q9UHC3 1-531)
T3 construct: whole, on cells; 3T3 cells co-expressing both subunits; also called 3T3/hASIC1/3; 3T3-hASIC1/ASIC3
T3 sequence 1: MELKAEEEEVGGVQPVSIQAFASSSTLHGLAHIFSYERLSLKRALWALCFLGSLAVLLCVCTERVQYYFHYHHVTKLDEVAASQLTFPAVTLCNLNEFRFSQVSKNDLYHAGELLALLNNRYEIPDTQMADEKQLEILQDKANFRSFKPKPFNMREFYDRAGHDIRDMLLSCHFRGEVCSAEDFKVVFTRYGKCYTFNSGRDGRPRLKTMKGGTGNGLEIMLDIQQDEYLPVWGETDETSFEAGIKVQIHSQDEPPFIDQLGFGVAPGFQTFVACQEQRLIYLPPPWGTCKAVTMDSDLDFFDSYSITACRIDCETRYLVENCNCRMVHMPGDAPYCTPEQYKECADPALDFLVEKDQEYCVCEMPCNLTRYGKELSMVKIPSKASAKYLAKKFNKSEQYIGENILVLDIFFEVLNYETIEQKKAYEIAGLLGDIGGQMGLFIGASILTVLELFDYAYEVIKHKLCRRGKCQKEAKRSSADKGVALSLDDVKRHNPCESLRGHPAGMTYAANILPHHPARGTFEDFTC
T3 sequence 2: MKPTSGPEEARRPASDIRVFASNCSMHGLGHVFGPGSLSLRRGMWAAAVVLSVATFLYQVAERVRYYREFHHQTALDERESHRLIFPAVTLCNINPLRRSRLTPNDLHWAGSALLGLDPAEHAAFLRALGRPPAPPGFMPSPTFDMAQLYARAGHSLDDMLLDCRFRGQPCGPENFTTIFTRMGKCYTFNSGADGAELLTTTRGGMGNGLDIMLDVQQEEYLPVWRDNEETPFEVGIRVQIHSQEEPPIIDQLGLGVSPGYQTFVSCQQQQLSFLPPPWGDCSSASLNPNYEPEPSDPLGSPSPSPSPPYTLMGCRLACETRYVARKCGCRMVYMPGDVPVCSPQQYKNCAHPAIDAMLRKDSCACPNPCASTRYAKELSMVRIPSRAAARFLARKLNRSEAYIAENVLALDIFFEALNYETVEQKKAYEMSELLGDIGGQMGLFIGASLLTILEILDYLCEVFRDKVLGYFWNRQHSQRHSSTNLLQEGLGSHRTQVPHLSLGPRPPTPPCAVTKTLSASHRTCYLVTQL

T4: human ASIC3 (human, UniProt Q9UHC3 1-531)
T4 construct: whole, on cells; Expressed on 3T3 cells (3T3/hASIC3) or HEK293 cells (HEK/hASIC3-QCells); also called hASIC3
T4 sequence (looked up): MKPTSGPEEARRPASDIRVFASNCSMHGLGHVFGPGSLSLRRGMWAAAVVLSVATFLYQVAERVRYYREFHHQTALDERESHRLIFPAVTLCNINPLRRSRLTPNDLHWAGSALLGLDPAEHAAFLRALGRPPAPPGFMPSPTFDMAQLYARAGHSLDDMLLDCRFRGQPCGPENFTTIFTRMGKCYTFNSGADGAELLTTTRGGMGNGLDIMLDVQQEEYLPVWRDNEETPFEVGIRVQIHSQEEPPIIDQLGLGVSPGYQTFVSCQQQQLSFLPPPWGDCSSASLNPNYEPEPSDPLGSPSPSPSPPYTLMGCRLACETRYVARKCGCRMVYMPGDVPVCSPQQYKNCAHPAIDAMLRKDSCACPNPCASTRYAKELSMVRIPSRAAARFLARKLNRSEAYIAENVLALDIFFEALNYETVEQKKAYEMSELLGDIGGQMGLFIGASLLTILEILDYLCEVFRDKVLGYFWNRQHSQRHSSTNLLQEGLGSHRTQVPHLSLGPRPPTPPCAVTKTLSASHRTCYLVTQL

B1: H1M6718N (antibody, mouse IgG1, V domains shown)
VH: EVQLLESGGGLVQPGGSLRLSCAASGFTFSSFAMSWVRQAPGKGLEWVSGISGSGGGTHYADSVKGRFTISRDNSKNMVYLQMNSLRAEDTAAYYCAKEAYKWQPWGQGTLVTVSS
VL: DIQMTQSPSTLSASVGDRVIITCRASQRISSWLAWYQQKPGKAPNLLIYKASILESGVPSRFSGSGSGTEFTLTISSLQPDDFATYYCQQYNSYSYTFGQGTKLEIK
B2: H1M7101N (antibody, mouse IgG1, V domains shown)
VH: EVQLLASGGGLVQTGGSLRLSCAASGFTFSSFAMSWVRQAPGKGLEWVSGISGSGGSTYYADSVKGRFTISRDNSKNTLYLQMNSLRAEDTAAYYCAKEAYKWQPWGQGIRVTVSS
VL: DIQMTQSPSTLSASVGDRVTITCRASQSISSWLAWYQQKPGKAPNLLIYKTSNLESGVPSRFSGSGSGTEFTLTISSLQPDDFATYYCQQYNSYSYTFGQGTKLEIK
B3: H1M6716N (antibody, mouse IgG1, V domains shown)
VH: QVQLVQSGAEVKKPGASVKVSCKASGYTFTIYDINWVRQATGQGLEWMGWMNPRSGSTGYSQKFQGRVTMTRNTSINTAFMELSSLRSEDTAVYYCVRGQLVLGYWGQGTLVTVSS
VL: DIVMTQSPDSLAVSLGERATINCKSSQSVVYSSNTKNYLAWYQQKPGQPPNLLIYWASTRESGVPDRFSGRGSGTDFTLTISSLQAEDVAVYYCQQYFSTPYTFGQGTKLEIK

Assays:
[1] = target: T1, mouse ASIC1a; assay: FACS, 3T3/mASIC1a cells
From the text: To further characterize anti-ASIC1 antibodies, their ability to bind either (a) a mouse fibroblast 3T3 cell line stably transfected to overexpress full length human ASIC1 (3T3/hASIC1; amino acids 1-528 of NCBI accession number NP_{—}001086.2 [SEQ ID NO:401]), (b) a 3T3 cell line stably transfected to over express full length mouse ASIC1a (3T3/mASIC1a; amino acids 1-526 of NCBI accession number NP_{—}033727), or (c) a ND7 cell line (ECACC, #92090903) that is a fusion cell line of mouse neuroblastoma and rat dorsal root ganglia that endogenously expresses rat ASIC1, was determined using flow cytometry (FACS). ND7 cells were differentiated by replacing the culture media with low-serum media (0.5% FBS) containing 1 mM dibutyryl-cAMP (Cat. No. sc-201567A, Santa Cruz Biotechnology, Inc., Santa Cruz, Calif.). FACS binding was tested for some antibodies on both undifferentiated ND7 cells and differentiated ND7 cells.
(§1) To perform the FACS binding experiments, adherent cells were collected using 1 mM EDTA in PBS, then washed, and re-suspended in cold PBS containing 5% FBS. For each binding experiment, each anti-ASIC1 antibody (at final concentrations of 10 nM of purified antibodies or 3.3 nM for antibody supernatants for binding to 3T3/hASIC1 cells and 5 nM for binding to 3T3/mASIC1a or ND7 cells) was added to 250,000 cells in 500 μL of PBS with 5% FBS. After incubation for 20 minutes at room temperature, a secondary antibody which recognizes human Fc (Cat. No. 109-136-098, Jackson ImmunoResearch Laboratories, Inc., West Grove, Pa.) or mouse Fc (Cat. No. 550826, BD Biosciences, San Jose, Calif.) and is conjugated to allophycocyanin, was then added to the cell mixture at a final concentration of 13.3 nM. After incubating for 20 minutes on ice, the cells were washed and resuspended in PBS containing 5% FBS, then sorted and analyzed on a flow cytometer (FACSCalibur, BD Biosciences, San Jose, Calif.) to determine relative binding by the candidate antibodies to the tested cell lines. Histograms of cells stained with anti-ASIC1 antibodies were compared with those of cells stained with secondary antibody alone. Percentage of ASIC1 signal over secondary antibody alone was calculated using FlowJo software (Tree Star, Ashland, Oreg.).

[2] = target: T2, human ASIC1; assay: cell-based or functional assay
[3] = target: T2, human ASIC1; assay: cell-based or functional assay; remark: listed apart in the source
[4] = target: T2, human ASIC1; assay: cell-based or functional assay; remark: listed apart in the source
[5] = target: T2, human ASIC1; assay: FACS titration, 3T3/hASIC1 cells
Experimental: as §1, with “([…]” for “(at final concentrations of 10 nM of purified antibodies or 3.3 nM for antibody supernatants for binding to 3T3/hASIC1 cells and 5 nM for binding to 3T3/mASIC1a”

[6] = target: T3, human ASIC1/ASIC3 channels …; assay: FACS, 3T3/hASIC1/3 cells, 10 nM antibody
From the text: (§2) For these experiments, four cell lines were constructed: (a) a mouse fibroblast 3T3 cell line stably transfected to overexpress full length human ASIC3 (3T3/hASIC3; amino acids 1-531 of NCBI accession number NP_{—}004760.1), (b) a 3T3 cell line stably transfected to co-express full length human ASIC1a and human ASIC3 (3T3/hASIC1/3; amino acids 1-528 of NCBI accession number NP_{—}001086.2 and amino acids 1-531 of NCBI accession number NP_{—}004760.1), (c) […] a stably transfected 3T3 cell line expressing the full-length mouse ASIC3 channel (3T3/mASIC3; amino acids 1-530 of NCBI accession number NP_{—}892045.2), and (d) a 3T3 cell line stably transfected to co-express full length mouse ASIC1a and mouse ASIC3 (3T3/mASIC1/3; amino acids 1-526 of NCBI accession number NP_{—}033727 and amino acids 1-530 of NCBI accession number NP_{—}892045.2). Antibody binding was determined using flow cytometry (FACS).
(§3) To perform the FACS binding experiments, adherent cells were collected with cold Millipore Accutase 3-5 minutes, spun and resuspended in ice-cold FACS buffer (PBS, 2% HI-FBS and 0.09% Na-azide). Anti-ASIC1 antibody at final concentrations of 10 nM was added for 20-30 minutes on ice. Cells were washed with 900 μL ice-cold FACS buffer, spun, and resuspended in 100 μL ice-cold FACS buffer. A secondary antibody which recognizes human Fc (Jackson Immuno Research, #109-136-098) and is conjugated to allophycocyanin, was then added to the cell mixture at a final concentration of 2.5 ug/mL. After incubating for 20 minutes on ice, the cells were washed and resuspended in FACS buffer, then sorted and analyzed on a flow cytometer (FACSCanto II, BD Biosciences, San Jose, Calif.) to determine relative binding by the candidate antibodies to the tested cell lines. Histograms of cells stained with anti-ASIC1 antibodies were compared with those of cells stained with secondary antibody alone. Percentage of ASIC1 signal over secondary antibody alone was calculated using FlowJo software (Tree Star, Ashland, Oreg.).

[7] = target: T4, human ASIC3; assay: FACS, 3T3/hASIC3 cells, 10 nM antibody
From the text: as §2, §3

Binder	binding result [1]	FLIPR Dose Curve, pH 5.0 % Block [2] [%]	FLIPR Dose Curve, pH 5.5 % Block [2] [%]	FLIPR Dose Curve, pH 5.5 IC50 [2] [nM]	Current inhibition (%) at 100 nM antibody, Q-Patch, pH 6.0 [3] [%]	apparent IC50, human ASIC1 current, Q-Patch [4] [nM]	calculated IC50, inhibition of human ASIC1 current, Port-a-Patch [4] [nM]	EC50 [5] [nM]	binding result [6]	binding result [7]
B1	binds	48	78	0.6	100	< 1	0.86	0.55		
B2	binds				97	< 1		0.72		
B3		25	37	1.1				0.023	binds	binds

Reference: US20140056907A1 (Regeneron, published 2014)
